Here are results for one molecule from article PMC2646144, “Crucial Role of the CB3-Region of Collagen IV in PARF-Induced Acute Rheumatic Fever” (PLoS ONE, 2009).

This assay addresses T1, GST-M3-protein (recombinant streptococcal M-protein type 3) (S. pyogenes).
T1 construct: M-protein type 3 (M3-protein) of Streptococcus pyogenes; emm3 amplified from chromosomal DNA of the M3 strain with primers M3-1 (BamHI) and M3-3 (SalI); The GST tag is named on the protein for electron microscopy and the pull-down; also called M3-GST; GST-tagged M-protein type M3; source: E. coli, pGEX6P-1, purified under native conditions; not shown: GST, N-terminal, kept
The assay can be described thus: SPR; BIAcore 2000, CIV or CB3 immobilised on CM5 chip by amine coupling, M3-protein injected at 6.25-50 µg/ml, 10 mM HEPES, 100 mM NaCl, pH 7.4; apparent dissociation constants. Conditions: both partners purified.

B1: Cyanogen bromide fragment 3 (CB3) of collagen type IV (domain or fragment)
chain 1: PGVGEKGEPGKPGPRGKPGKDGDKGEKGSPGFPGEPGYPGLIGRQGPQGEKGEAGPPGPPGIVIGTGPLGEKGERGYPGTPGPRGEPGPKGFPGLPGQPGPPGLPVPGQAGAPGFPGERGEKGDRGFPGTSLPGPSGRDGLPGPPGSPGPPGQPGYTNGIVECQPGPPGDQGPPGIPGQPGFIGEIGEKGQKGESCLICDIDGYRGPPGPQGPPGEIGFPGQPGAKGDRGLPGRDGVAGVPGPQGTPGLIGQPGAKGEPGEFYFDLRLKGDKGDPGFPGQPGM
chain 2: GFPGLRGYPGLSGEKGSPGQKGSRGLDGYQGPDGPRGPKGEAGDPGPPGLPAYSPHPSLAKGARGDPGFPGAQGEPGSQGEPGDPGLPGPPGLSIGDGDQRRGLPGEM
chain 3: GPKGFIGDPGIPALYGGPPGPDGKRGPPGPPGLPGPPGPDGFLFGLKGAKGRAGFPGLPGSPGARGPKGWKGDAGECRCTEGDEAIKGLPGLPGPKGFAGINGEPGRKGDRGDPGQHGLPGFPGLKGVPGNIGAPGPKGAKGDSRTITTKGERGQPGVPGVPGM
modifications: 125I (chloramine T method) in the pull-down, bacterial binding and overlay assays | 125I (chloramine T method) in the pull-down, bacterial binding and overlay assays
Consider B1, for which the Kd turned out to be 60 nM.
